{"source": "paper PMC5422253", "about": "“Cryo-EM Structure of a Relaxase Reveals the Molecular Basis of DNA Unwinding during Bacterial Conjugation”", "key": {"TraI A1105W/M795A": {"molecular_target": "TraI A1105W/M795A (Escherichia coli conjugative plasmid R1?, UniProt Q6TDU5 1-1756, A1105W;M795A)", "test": "fluorescence anisotropy; higher affinity than the single mutants A1105W and M795A; Kd only in figure; Anisotropy: 10 nM 22-merAlexa488, 50 mM Tris pH 7.2, 100 mM NaCl, 25 C, 20 min; complexes for gel filtration: protein and ssDNA mixed on ice 10 min (stocks in 50 mM Tris pH 7.2, 100 mM NaCl); EPR complexes: PBS pH 7.4, 1 mM MgCl2", "conditions": "protein: recombinant; tags: N-terminal His6 with enterokinase site; label: 3'-Alexa488"}, "TraI relaxase wild-type [1]": {"molecular_target": "T1, TraI relaxase wild-type (Escherichia coli conjugative plasmid R1 …, UniProt Q6TDU5 1-1756)", "test": "limited trypsin proteolysis; open, protease-sensitive conformer; Anisotropy: 10 nM 22-merAlexa488, 50 mM Tris pH 7.2, 100 mM NaCl, 25 C, 20 min; complexes for gel filtration: protein and ssDNA mixed on ice 10 min (stocks in 50 mM Tris pH 7.2, 100 mM NaCl); EPR complexes: PBS pH 7.4, 1 mM MgCl2", "conditions": "protein: recombinant; tags: N-terminal His6 with enterokinase site; inverted repeat"}, "TraI relaxase wild-type [2]": {"molecular_target": "T1, TraI relaxase wild-type", "test": "size exclusion chromatography; protein:ssDNA 1:1, 2:1, 4:1; TraI dimer forms on 49-mer; Anisotropy: 10 nM 22-merAlexa488, 50 mM Tris pH 7.2, 100 mM NaCl, 25 C, 20 min; complexes for gel filtration: protein and ssDNA mixed on ice 10 min (stocks in 50 mM Tris pH 7.2, 100 mM NaCl); EPR complexes: PBS pH 7.4, 1 mM MgCl2", "conditions": "protein: recombinant; tags: N-terminal His6 with enterokinase site; inverted repeat 5' of nic"}, "TraI relaxase wild-type [3]": {"molecular_target": "T1, TraI relaxase wild-type", "test": "limited trypsin proteolysis; 1:1 complex; pattern as with 22-mer; Anisotropy: 10 nM 22-merAlexa488, 50 mM Tris pH 7.2, 100 mM NaCl, 25 C, 20 min; complexes for gel filtration: protein and ssDNA mixed on ice 10 min (stocks in 50 mM Tris pH 7.2, 100 mM NaCl); EPR complexes: PBS pH 7.4, 1 mM MgCl2", "conditions": "protein: recombinant; tags: N-terminal His6 with enterokinase site"}, "TraI-MBP": {"molecular_target": "TraI-MBP (Escherichia coli conjugative plasmid R1?, UniProt Q6TDU5 1-1756)", "test": "size exclusion chromatography; after 365 nm photocleavage, peak IV; Anisotropy: 10 nM 22-merAlexa488, 50 mM Tris pH 7.2, 100 mM NaCl, 25 C, 20 min; complexes for gel filtration: protein and ssDNA mixed on ice 10 min (stocks in 50 mM Tris pH 7.2, 100 mM NaCl); EPR complexes: PBS pH 7.4, 1 mM MgCl2", "conditions": "protein: recombinant; tags: N-terminal His6 with enterokinase site; C-terminal MBP via TPGSP linker; label: 3'-6-FAM"}, "TraI1-1475": {"molecular_target": "T2, TraI1-1475 (Escherichia coli conjugative plasmid R1?, UniProt Q6TDU5 1-1475)", "T2 sequence": "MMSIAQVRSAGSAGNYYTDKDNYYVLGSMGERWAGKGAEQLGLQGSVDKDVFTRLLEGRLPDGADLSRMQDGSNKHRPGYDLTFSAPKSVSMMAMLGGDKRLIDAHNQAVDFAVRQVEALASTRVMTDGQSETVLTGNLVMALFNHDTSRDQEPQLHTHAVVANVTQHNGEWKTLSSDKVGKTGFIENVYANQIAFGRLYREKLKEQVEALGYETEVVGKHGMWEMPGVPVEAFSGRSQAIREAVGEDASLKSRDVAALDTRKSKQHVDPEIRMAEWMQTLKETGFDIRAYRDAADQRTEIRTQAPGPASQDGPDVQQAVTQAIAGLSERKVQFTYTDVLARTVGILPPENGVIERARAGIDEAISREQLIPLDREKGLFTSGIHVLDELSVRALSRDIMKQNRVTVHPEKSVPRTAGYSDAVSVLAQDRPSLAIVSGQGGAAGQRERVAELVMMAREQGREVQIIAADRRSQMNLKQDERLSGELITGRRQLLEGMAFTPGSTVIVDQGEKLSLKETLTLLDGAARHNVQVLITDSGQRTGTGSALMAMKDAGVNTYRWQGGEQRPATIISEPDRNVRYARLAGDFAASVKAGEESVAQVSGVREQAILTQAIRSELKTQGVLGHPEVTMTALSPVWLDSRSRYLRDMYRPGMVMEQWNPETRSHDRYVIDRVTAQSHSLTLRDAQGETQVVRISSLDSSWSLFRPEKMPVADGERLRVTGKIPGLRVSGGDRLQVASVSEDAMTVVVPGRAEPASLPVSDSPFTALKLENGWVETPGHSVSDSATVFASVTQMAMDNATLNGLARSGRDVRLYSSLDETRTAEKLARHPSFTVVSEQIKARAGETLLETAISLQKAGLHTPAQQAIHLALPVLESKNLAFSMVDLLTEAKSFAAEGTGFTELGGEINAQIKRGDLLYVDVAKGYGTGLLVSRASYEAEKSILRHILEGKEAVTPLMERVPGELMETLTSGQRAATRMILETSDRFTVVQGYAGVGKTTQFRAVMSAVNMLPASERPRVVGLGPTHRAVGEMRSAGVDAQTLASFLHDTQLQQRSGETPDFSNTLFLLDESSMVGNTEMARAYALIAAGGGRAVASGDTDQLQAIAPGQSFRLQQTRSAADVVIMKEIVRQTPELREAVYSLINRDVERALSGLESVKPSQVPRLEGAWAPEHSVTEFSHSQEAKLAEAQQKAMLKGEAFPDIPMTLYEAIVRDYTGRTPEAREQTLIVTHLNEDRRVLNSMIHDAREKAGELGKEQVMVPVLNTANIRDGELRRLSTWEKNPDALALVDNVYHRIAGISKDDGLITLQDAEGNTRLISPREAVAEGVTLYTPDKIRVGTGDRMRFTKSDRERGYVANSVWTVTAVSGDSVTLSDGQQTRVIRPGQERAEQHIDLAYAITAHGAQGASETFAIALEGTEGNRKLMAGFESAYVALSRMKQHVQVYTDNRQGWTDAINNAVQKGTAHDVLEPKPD", "test": "size exclusion chromatography; after 365 nm photocleavage, peak V; Anisotropy: 10 nM 22-merAlexa488, 50 mM Tris pH 7.2, 100 mM NaCl, 25 C, 20 min; complexes for gel filtration: protein and ssDNA mixed on ice 10 min (stocks in 50 mM Tris pH 7.2, 100 mM NaCl); EPR complexes: PBS pH 7.4, 1 mM MgCl2", "conditions": "protein: recombinant; tags: N-terminal His6 with enterokinase site; label: 5'-Cy5; inverted repeat"}}, "data": [{"binder": "GGTGCTTTTGGTGGTGAGAACC (ssDNA)", "note": "[22-merAlexa488]", "values": [{"measurement": "binding result", "setting": "TraI A1105W/M795A", "result": "binds"}]}, {"binder": "GCAAAAACTTGTTTTTGCGTGGGGTGTGGT (ssDNA)", "note": "[30-mer]", "values": [{"measurement": "binding result", "setting": "TraI relaxase wild-type [1]", "result": "binds"}]}, {"binder": "GCAAAAACTTGTTTTTGCGTGGGGTGTGGTGCTTTTGGTGGTGAGAACC (ssDNA)", "note": "[49-mer oriT]", "values": [{"measurement": "binding result", "setting": "TraI relaxase wild-type [2]", "result": "binds"}]}, {"binder": "GCTTTTGGTGGTGAGAACC (ssDNA)", "note": "[19-mer]", "values": [{"measurement": "binding result", "setting": "TraI relaxase wild-type [3]", "result": "binds"}]}, {"binder": "GCTTTTGGTGGTGAGAACC (ssDNA, 5' end from PC linker photocleavage)", "note": "[19-mer-6-FAM photocleavage product]", "values": [{"measurement": "binding result", "setting": "TraI-MBP", "result": "binds"}]}, {"binder": "GCAAAAACTTGTTTTTGCGTGGGGTGTGGT (ssDNA, 3' end from PC linker photocleavage)", "note": "[Cy5-30-mer photocleavage product]", "values": [{"measurement": "binding result", "setting": "TraI1-1475", "result": "binds"}]}]}
